Tested on: OG2 mouse embryonic fibroblasts
Test: Induction of pluripotent stem cells (reprogramming) from OG2 mouse embryonic fibroblasts; GFP fluorescence clones counted
Assay type: cell-based
Details: for induction of pluripotent stem cells with only SO, KO or Oct4: Jhdm1a and Jhdm1b together, mES medium with 50 μg/ml vitamin C, FIG. 3; for induction of pluripotent stem cells with only SO, KO or Oct4 / efficiency of reprogramming (inducing pluripotent stem cells) mediated by SKO / efficiency of reprogramming (inducing pluripotent stem cells) mediated by SKOM: control pMXs-FLAG empty vector; for efficiency of reprogramming (inducing pluripotent stem cells) mediated by SKO: with Klf4, Sox2, Oct4 (SKO); for efficiency of reprogramming (inducing pluripotent stem cells) mediated by SKO / efficiency of reprogramming (inducing pluripotent stem cells) mediated by SKOM: whether vitamin C present or not; for efficiency of reprogramming (inducing pluripotent stem cells) mediated by SKOM: with Klf4, Sox2, c-Myc, Oct4 (SKOM)

## O=C1O[C@H]([C@@H](O)CO)C(O)=C1O [vitamin C, reference compound]
Oct4 + Jhdm1b (OB), vitamin C present
  effect of vitamin C on reprogramming by Oct4 with Jhdm1b: achieves more significant effects
SKO plus Jhdm1a or Jhdm1b, vitamin C in inducing medium (50 μg/mL), FIG. 1
  effect of vitamin C on improvement of reprogramming efficiency, SKO: the improvement was more significant
SKOM plus Jhdm1a or Jhdm1b, vitamin C in inducing medium (50 μg/mL), FIG. 2
  effect of vitamin C on improvement of reprogramming efficiency, SKOM: the improvement was more significant

B1: Jhdm1a: member of the JmjC-domain-containing histone demethylase family, expressed from pMXs-FLAG retroviral vector (SEQ ID NO: 1 / 7) (protein)
chain: MEPEEERIRYSQRLRGTMRRRYEDDGISDDEIEGKRTFDLEEKLQTNKYNANFVTFMEGKDFNVEYIQRGGLRDPLIFKNSDGLGIKMPDPDFTVNDVKMCVGSRRMVDVMDVNTQKGIEMTMAQWTRYYETPEEEREKLYNVISLEFSHTRLENMVQRPSTVDFIDWVDNMWPRHLKESQTESTNAILEMQYPKVQKYCLMSVRGCYTDFHVDFGGTSVWYHIHQGGKVFWLIPPTAHNLELYENWLLSGKQGDIFLGDRVSDCQRIELKQGYTFVIPSGWIHAVYTPTDTLVFGGNFLHSFNIPMQLKIYSIEDRTRVPNKFRYPFYYEMCWYVLERYVYCITNRSHLTKDFQKESLSMDMELNELESGNGDEEGVDREARRMNNKRSVLTSPVANGVNLDYDGLGKACRSLPSLKKTLSGDSSSDSTRGSHNGQVWDPQCSPKKDRQVHLTHFELEGLRCLVDKLESLPLHKKCVPTGIEDEDALIADVKILLEELASSDPKLALTGVPIVQWPKRDKLKFPTRPKVRVPTIPITKPHTMKPAPRLTPVRPAAASPIVSGARRRRVRCRKCKACVQGECGVCHYCRDMKKFGGPGRMKQSCVLRQCLAPRLPHSVTCSLCGEVDQNEETQDFEKKLMECCICNEIVHPGCLQMDGEGLLNEELPNCWECPKCYQEDSSDKAQKRKIEESDEEAVQAKVLRPLRSCEEPLTPPPHSPTSMLQLIHDPVSPRGMVTRSSPGAGPSDHHSASRDERFKRRQLLRLQATERTMVREKENNPSGKKELSEVEKAKIRGSYLTVTLQRPTKELHGTSIVPKLQAITASSANLRPNPRVLMQHCPARNPQHGDEEGLGGEEEEEEEEEEDDSAEEGGAARLNGRGSWAQDGDESWMQREVWMSVFRYLSRKELCECMRVCKTWYKWCCDKRLWTKIDLSRCKAIVPQALSGIIKRQPVSLDLSWTNISKKQLTWLVNRLPGLKDLLLAGCSWSAVSALSTSSCPLLRTLDLRWAVGIKDPQIRDLLTPPTDKPGQDNRSKLRNMTDFRLAGLDITDATLRLIIRHMPLLSRLDLSHCSHLTDQSSNLLTAVGSSTRYSLTELNMAGCNKLTDQTLFFLRRIANVTLIDLRGCKQITRKACEHFISDLSINSLYCLSDEKLIQKIS
modifications: FLAG tag; nucleotide acid sequence of coding regions for kdm2a
  induction of pluripotent stem cells with only SO, KO or Oct4: acted together to enable the induction of pluripotent stem cells
FIG. 1
  efficiency of reprogramming (inducing pluripotent stem cells) mediated by SKO: obviously improved the efficiency of reprogramming
FIG. 2
  efficiency of reprogramming (inducing pluripotent stem cells) mediated by SKOM: obviously improved the efficiency of reprogramming

B2: Jhdm1b: member of the JmjC-domain-containing histone demethylase family, expressed from pMXs-FLAG retroviral vector (SEQ ID NO: 2 / 8) (protein)
chain: MEAEKDSGRRLRAIDRQRYDENEDLSDVEEIVSVRGFSLEEKLRSQLYQGDFVHAMEGKDFNYEYVQREALRVPLVFRDKDGLGIKMPDPDFTVRDVKLLVGSRRLVDVMDVNTQKGTEMSMSQFVRYYETPEAQRDKLYNVISLEFSHTKLEHLVKRPTVVDLVDWVDNMWPQHLKEKQTEATNALAEMKYPKVKKYCLMSVKGCFTDFHIDFGGTSVWYHVFRGGKIFWLIPPTLHNLALYEEWVLSGKQSDIFLGDRVERCQRIELKQGYTFFIPSGWIHAVYTPVDSLVFGGNILHSFNVPMQLRIYEIEDRTRVQPKFRYPFYYEMCWYVLERYVYCVTQRSYLTQEYQRELMLIDAPRKTSVDGFSSDSWLDMEEESCEQQPQEEEEEEEDKEEEGDGADKTPKPPTDDPTSPTSTPPEDQDSTGKKPKAPAIRFLKRTLSNESEESVKSTSMPTDDPKTPTGSPATEVSTKWTHLTEFELKGLKALVEKLESLPENKKCVPEGIEDPQALLEGVKNVLKEHVDDDPTLAITGVPVVSWPKKTAKNRVVGRPKGKLGPASAVKLAANRTTAGARRRRTRCRKCEACLRTECGECHFCKDMKKFGGPGRMKQSCIMRQCIAPVLPHTAVCLVCGEAGKEDTVEEEEGKFNLMLMECSICNEIIHPGCLKIKESEGVVNDELPNCWECPKCNHAGKTGKQKRGPGFKYASNLPGSLLKEQKMNRDNKEGQEPAKRRSECEEAPRRRSDEHPKKVPADGILRRKSDDVHLRRKRKYEKPQELSGRKRASSLQTSPGSSSHLSPRPPLGSSLSPWWRSSLTYFQQQLKPGKEDKLFRKKRRSWKNAEDRLSLANKPLRRFKQEPEDDLPEAPPKTRESDQSRSSSPTAGPSTEGAEGPEEKKKVKMRRKRRLVNKELSKELSKELNHEIQKTESTLAHESQQPIKSEPESENDEPKRPLSHCERPHRFSKGLNGTPRELRHSLGPGLRSPPRVMSRPPPSASPPKCIQMERHVIRPPPISPPPDSLPLDDGAAHVMHREVWMAVFSYLSHRDLCVCMRVCRTWNRWCCDKRLWTRIDLNRCKSITPLMLSGIIRRQPVSLDLSWTNISKKQLSWLINRLPGLRDLVLSGCSWIAVSALCSSSCPLLRTLDVQWVEGLKDAQMRDLLSPPTDNRPGQMDNRSKLRNIVELRLAGLDITDVSLRLIIRHMPLLSKLQLSYCNHINDQSINLLTAVGTTTRDSLTEVNLSDCNKVTDLCLSFFKRCGNICHIDLRYCKQVTKEGCEQFIAEMSVSVQFGQVEEKLLQKLS
modifications: FLAG tag; nucleotide acid sequence of coding regions for kdm2b
  induction of pluripotent stem cells with only SO, KO or Oct4: acted together to enable the induction of pluripotent stem cells
Oct4 + Jhdm1b (OB), common culture medium without vitamin C
  completion of reprogramming by combination with Oct4 alone: can complete reprogramming in a common culture medium
FIG. 1
  efficiency of reprogramming (inducing pluripotent stem cells) mediated by SKO: obviously improved the efficiency of reprogramming
FIG. 2
  efficiency of reprogramming (inducing pluripotent stem cells) mediated by SKOM: obviously improved the efficiency of reprogramming

Reference: US9163218B2, “Method for increasing the efficiency of inducing pluripotent stem cells” (GUANGZHOU INSTITUTES OF BIOMEDICINE AND HEALTH, CHINESE …, priority 2011, dated 2015)
